Measured values from the supplement of paper PMC10567573.

B1: LCOR (parent)
chain: YKVKERLGTLKNPPKKKMKLMSG

Variants of: B1
Assay: protein stability index of a GFP-peptide fusion (GPS, HEK-293T) (PSI 1-6); higher = more stable
Details: c terminus: native
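Also: lentivirally expressed fusions sorted by FACS into six bins by GFP to DsRed ratio, PSI derived from sequencing read proportions per bin multiplied by bin number.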

Protein stability index: each site, then its substitutions
G8: E 2.72 | N 1.27 | C 2.52 | S 1.76 | I 1.12 | Y 2.08 | L 2.22 | T 2.16 | A 1.85 | K 1.47 | M 1.69 | R 1.4 | Q 3.21 | V 2.33 | H 1.92 | P 3.05
K15: H 2.34 | I 3.63 | L 1.58 | D 2.06 | Q 1.84 | N 2.34 | E 2.66 | S 2.17 | W 3.79 | R 2.04 | P 2.99
N12: I 1.09 | H 2.7 | S 1.72 | R 3.15 | T 3.6 | P 2.33 | E 1.61 | Y 2.39 | G 2.84 | Q 2.6 | D 1.65 | M 1.26 | K 2.25 | F 1.86 | V 1.86 | A 2.54 | W 2.83 | C 3.3
P14: N 1.49 | D 1.71 | L 1.32 | T 1.63 | S 3.59 | G 3.94 | I 1.78 | M 3.42 | K 1.77 | Y 3.03 | C 2.14 | W 2.41 | E 1.37 | H 2.87 | A 1.42
K16: G 2.57 | D 2.35 | H 1.49 | F 1.45 | E 2.83 | C 1.15
T9: A 1.96 | K 2.06 | Q 2.64 | C 2.2 | D 2.17 | V 2.35 | H 2.33 | N 2.45 | G 1.23 | S 2.19 | E 1.53 | Y 2.22 | R 1.81 | I 1.5 | M 2.39 | L 3.4 | W 3.03
L7: E 2.04 | N 2.53 | K 1.98 | P 1.55 | C 2.75 | W 1.76 | D 2.56 | R 1.06 | G 3.22 | I 2.14 | T 1.85 | M 1.37 | Q 1.52 | S 1.55 | H 1.84 | F 1.5 | A 2.49 | Y 1.53
R6: Y 2.14 | K 1.11 | W 2.79 | E 2.17 | P 2.47 | G 2.21 | F 2.2 | C 4.96 | S 3.27 | T 1.72 | I 2.49 | D 1.46 | L 1.84 | Q 2.16 | M 2.5
P13: R 2.2 | G 1.5 | H 2.49 | F 2.63 | S 2.09 | D 1.93 | T 2.42 | V 1.98 | N 2.05 | I 2.27 | L 2.02 | A 2.68 | C 2.03 | E 2.94 | K 3.2 | Q 1.76
L10: D 1.86 | A 2.38 | V 2 | Y 3.47 | T 2.52 | H 1.85 | I 1.5 | C 2.19 | F 2.46 | P 1.42 | E 2.04 | N 2.85 | W 2.42 | S 1.85 | Q 1.52 | K 1.85 | M 2.8 | R 2.23 | G 1.35
E5: T 2.22 | W 3.07 | V 2.94
K11: E 1.69 | Q 1.44 | M 3.04 | Y 2.48 | I 3.65 | A 3.29 | R 2.39 | C 2.02 | N 2.29 | S 1.55 | D 1.76 | G 3.44 | H 1.79
